Measured values reported in paper PMC10779143, “Collagen-like Osteoclast-Associated Receptor (OSCAR)-Binding Motifs Show a Co-Stimulatory Effect on Osteoclastogenesis in a Peptide Hydrogel System” (International Journal of Molecular Sciences, 2023).

B1: hRANKL: human RANKL (hRANKL) (catalogue number: 310-01 from Peprotech, London, UK) (protein, UniProt O14788 69-317, looked up)
extracellular domain: YFRAQMDPNRISEDGTHCIYRILRLHENADFQDTTLESQDTKLIPDSCRRIKQAFQGAVQKELQHIVGSQHIRAEKAMVDGSWLDLAKRSKLEAQPFAHLTINATDIPSGSHKVSLSSWYHDRGWAKISNMTFSNGKLIVNQDGFYYLYANICFRHHETSGDLATEYLQLMVYVTKTSIKIPSSHTLMKGGSTKYWSGNSEFHFYSINVGGFFKLRSGEEISIEVSNPSLLDPDQDATYFGAFKVRDID
modifications: extracellular domain
B2: RANKL: RANK ligand (RANKL), as used in cited studies (protein, UniProt O14788 140-317, looked up)
Tumor necrosis factor ligand …: IRAEKAMVDGSWLDLAKRSKLEAQPFAHLTINATDIPSGSHKVSLSSWYHDRGWAKISNMTFSNGKLIVNQDGFYYLYANICFRHHETSGDLATEYLQLMVYVTKTSIKIPSSHTLMKGGSTKYWSGNSEFHFYSINVGGFFKLRSGEEISIEVSNPSLLDPDQDATYFGAFKVRDID

Tests used:
Raw 264.7 cells [1] = assay: TRAP staining / osteoclast morphology of Raw 264.7 cells on peptide-coated tissue culture plastic; format: cell-based
Procedure: Raw 264.7 cells were cultured and passaged as previously described. Cell adhesion to OP1_Hyp and OP1_Pro was assessed as shown by Barrow et al.. Briefly, 48-well plates were coated with 10 µg/mL of OSCAR-binding peptides overnight at 4 °C. The excess peptide was then removed by washing with PBS before adding 1% BSA to block non-specific binding sites for 1 h at 25 °C. Raw 264.7 cells were then resuspended at a concentration of 2 × 10^5 cells/mL and added to the well. Cells were cultured with different concentrations of human RANKL (hRANKL) (catalogue number: 310-01 from Peprotech, London, UK) (0–100 ng/mL) for up to 5 days to assess the contribution of the OSCAR-binding peptides OP1_Hyp and OP1_Pro to the differentiation of Raw 264.7 cells to mature OCs.
After 5 days of post-culture, Raw 264.7 cells were fixed in 4% PFA for 15 min at room temperature. TRAP was stained following the manufacturer’s protocol and evaluated by light microscopy (ThermoFisher, Swindon, UK). Multinucleated TRAP+ cells containing more than three nuclei were scored as mature OCs.

Raw 264.7 cells [2] = conditions: cited from earlier work

Molecule | Differentiation, 1 ng/mL hRANKL (Raw 264.7 cells [1]; 5 days on TCP, 1 ng/mL hRANKL) | Average cell diameter of treated cells (Raw 264.7 cells [1]; 5 days, 100 ng/mL hRANKL, TCP with OP1_Hyp or OP1_Pro, untreated cells 38.1 ± 8.8 µm) | OSCAR and TRAP levels, 50 ng/mL RANKL only (Raw 264.7 cells [2]; days 1-4, ref Lampiasi et al. [35]) | Lowest optimal concentration for osteoclastic cell formation (Raw 264.7 cells [2]; ref Song et al. [29])
B1 | No differentiation was observed | 273.9 ± 73.4 µm | – | –
B2 | – | – | increased significantly between days 1 and 2 of culture before decreasing sharply on days 3 and 4 | 30 ng/mL
